By Kd is commonly meant the equilibrium constant for the complex coming apart.

Experiment [1] has as its target T1, mouse FcRn (mouse, UniProt Q61559 22-297; P01887 21-119, limits assumed).
T1 construct: also called mFcRn; murine FcRn
T1 sequence (looked up) 1: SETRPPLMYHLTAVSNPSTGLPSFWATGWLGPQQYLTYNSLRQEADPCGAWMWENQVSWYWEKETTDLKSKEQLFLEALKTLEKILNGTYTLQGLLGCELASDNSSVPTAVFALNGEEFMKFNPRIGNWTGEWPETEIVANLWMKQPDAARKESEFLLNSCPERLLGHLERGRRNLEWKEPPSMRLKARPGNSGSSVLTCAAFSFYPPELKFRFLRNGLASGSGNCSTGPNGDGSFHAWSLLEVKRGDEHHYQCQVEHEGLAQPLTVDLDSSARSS
T1 sequence (looked up) 2: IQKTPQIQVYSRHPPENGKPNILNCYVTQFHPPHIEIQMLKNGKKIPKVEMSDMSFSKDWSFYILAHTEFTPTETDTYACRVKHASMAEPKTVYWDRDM
In words: not stated in the sentence (apparently the SPR of Example 7).

In experiment [2] the target is T2, human FcRn (human, UniProt P55899 24-297; P61769 21-119, limits assumed).
T2 construct: also called hFcRn
In words: SPR, Fc loaded on anti-human Fc biosensors. The method, then: (§1) Dissociation constants (KDs) are plotted as μM (solid bars) and association constants (KAs) are plotted as Ms⁻¹ (hatched bars). (FIG. 9E and FIG. 9F) Female WT C57BL/6 (FIG. 9E) and humanized homozygous FcRn (Tg32) mice (FIG. 9F) were administered one dose of 50 mg/kg or 100 mg/kg of F241A/B4ST6 Fc or 10 mg/kg of Fc^Abdeg and serum mouse IgG was measured via ELISA out to day 7 post-dose. (FIG. 9G) SIGN-R1^{-/-} and hDC-SIGN⁺ murine bone marrow-derived macrophages (BMDMs) had their Fcγ receptors blocked then were incubated with PBS, F241A/B4ST6 Fc, or Fc^Abdeg and binding was detected by FACS using an anti-human IgG Fc antibody. […] (FIG. 911-9J) Female WT C57BL/6 mice (n=5 per group) and female and male SIGN-R1^{-/-} mice (n=5 per group) were administered arthritogenic K/BxN serum alongside PBS, 1 g/kg IVIG, 50 mg/kg F241A/B4ST6 Fc, or 10 mg/kg Fc^Abdeg in a preventative manner, and joint swelling was clinically scored for 10 days. […] Statistical significance was assessed using an ordinary one-way ANOVA with Tukey's multiple comparisons.
(§2) At the outset, the interactions between WT Fc, F241A/B4ST6 Fc, and Fc^Abdeg were tested with mouse and human FcRn using surface plasmon resonance (SPR). […] C57BL/6 and hFcRn (Tg32) mice were given a single intravenous injection of F241A/B4ST6 Fc or Fc^Abdeg and, following dosing, serum mIgG was determined via ELISA.
For orientation: Surface plasmon resonance follows binding to a sensor surface in real time, without labels.

Experiment [3] addresses T1, mouse FcRn. Put plainly: SPR, Fc loaded on anti-human Fc biosensors. As to the method: as §1, §2
Experiment [4] addresses T2, human FcRn. Put plainly: SPR; Fc loaded on anti-human Fc biosensors, human FcRn in solution. The method, then:
as §1, §2

The target of experiment [5] is T3, human Dendritic Cell-Specific ICAM-3-Grabbing Non-Integrin (DC-SIGN) on hDC-SIGN^+/SIGN-R1^-/- murine bone … (human, UniProt Q9NNX6 1-404).
T3 construct: whole, on cells; also called hCD209
T3 sequence (looked up): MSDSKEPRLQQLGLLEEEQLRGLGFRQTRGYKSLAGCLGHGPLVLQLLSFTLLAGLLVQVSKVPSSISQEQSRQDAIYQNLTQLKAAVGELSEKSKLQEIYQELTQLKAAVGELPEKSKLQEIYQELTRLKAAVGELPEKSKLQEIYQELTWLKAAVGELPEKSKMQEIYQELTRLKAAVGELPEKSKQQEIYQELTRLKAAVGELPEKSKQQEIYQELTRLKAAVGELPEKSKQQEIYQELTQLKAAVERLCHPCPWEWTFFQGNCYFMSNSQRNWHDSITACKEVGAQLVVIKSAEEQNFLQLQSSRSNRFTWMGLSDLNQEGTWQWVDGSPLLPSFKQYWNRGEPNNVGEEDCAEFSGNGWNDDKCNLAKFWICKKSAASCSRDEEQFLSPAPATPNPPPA
Put plainly: flow cytometry on hDC-SIGN^+/SIGN-R1^-/- BMDMs, Fc gamma receptors blocked, detection with anti-hIgG Fc antibody. The method, then:
Both IVIG and sialylated IgG Fc require the murine C-type lectin Specific ICAM3-Grabbing Non-Integrin Related-1 (SIGN-R1) to mediate anti-inflammatory activity in vivo. This requirement can be circumvented by introduction of SIGN-R1 human orthologue, Dendritic Cell-Specific ICAM-3-Grabbing Non-Integrin (DC-SIGN). Therefore, the ability of both F241A/B4ST6 Fc and Fc^Abdeg to bind DC-SIGN was examined via a cell-binding assay. […] Cells were cultured overnight in high glucose DMEM medium supplemented with 1× antibiotic-antimycotic and 1×FBS at 37° C. and 5% CO₂. The next day, supernatants were discarded and cells were detached with enzyme-free dissociation buffer. Suspended cells were collected and centrifuged for 10 minutes at 400 rpm. The pellet was resuspended and washed in binding buffer (1×TBS, […], 2.5% FBS and 0.05% sodium azide). Fc receptors were blocked by adding anti-mouse CD16/32 antibody clone 93. After blocking, cells were washed in binding buffer, after which 100 μg/mL of Fc^Abdeg and F241A/B4ST6 Fc were added to the cells, which were then incubated for 1 hour on ice. […] BMDMs were analyzed by flow cytometry to detect surface-bound IgG. No bound IgG were detected on the SIGN-R1^{-/-} BMDMs incubated with F241A/B4ST6 Fc or Fc^Abdeg (FIG. 9G). However, IgG was detected on hDC-SIGN⁺/SIGN-R1^{-/-} BMDMs treated with F241A/B4ST6 Fc, but not with Fc^Abdeg (FIG. 9G).

The target of experiment [6] is T1, mouse FcRn. In words: SPR; Fc loaded on anti-human Fc biosensors, mouse FcRn in solution. The method, then: as §1, §2

T2 sequence (P55899 24-297 limits assumed, chain 1 of 2): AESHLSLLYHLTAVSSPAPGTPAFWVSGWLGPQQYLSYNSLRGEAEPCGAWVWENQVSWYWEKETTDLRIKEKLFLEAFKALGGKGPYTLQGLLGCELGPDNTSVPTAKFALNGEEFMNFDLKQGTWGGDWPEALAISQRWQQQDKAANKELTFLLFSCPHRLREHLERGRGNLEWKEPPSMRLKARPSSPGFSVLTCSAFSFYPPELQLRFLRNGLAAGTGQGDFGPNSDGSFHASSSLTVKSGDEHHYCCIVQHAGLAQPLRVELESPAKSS
T2 sequence (P61769 21-119 limits assumed, chain 2 of 2): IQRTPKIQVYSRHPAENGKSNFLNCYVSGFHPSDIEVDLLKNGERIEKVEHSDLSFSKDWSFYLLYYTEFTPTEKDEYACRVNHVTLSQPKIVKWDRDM

B1: Fc^Abdeg polypeptide (efgartigimod), human IgG1 Fc with M252Y/S254T/T256E/H433K/N434F (other)
chain: DKTHTCPPCPAPELLGGPSVFLFPPKPKDTLYITREPEVTCVVVDVSHEDPEVKFNWYVDGVEVHNAKTKPREEQYNSTYRVVSVLTVLHQDWLNGKEYKCKVSNKALPAPIEKTISKAKGQPREPQVYTLPPSRDELTKNQVSLTCLVKGFYPSDIAVEWESNGQPENNYKTTPPVLDSDGSFFLYSKLTVDKSRWQQGNVFSCSVMHEALKFHYTQKSLSLSPG
notes: also called EFG Fc
Turning to B1, the “fold enhanced affinity compared to human FcRn” value in experiment [1] came out at 10 fold. The “fold lower KD than F241A/B4ST6 Fc” value in experiment [2] turned out to be 39 fold; in experiment [3], 267 fold. The values for the Kd in experiment [4] and in experiment [6] were 5.2 nM and 0.27 nM, respectively. In addition, the binding result in experiment [5] is given as “no binding (tested: 100 µg/mL)”.

(Values after US20260242432A1 (NUVIG THERAPEUTICS, published 2026).)
